# T1: His-tagged human VISTA extracellular domain protein (in house) (human, UniProt Q9H7M9 33-194)
# T1 construct: also called human VISTA ECD; hVISTA; not shown: His tag
# T1 sequence: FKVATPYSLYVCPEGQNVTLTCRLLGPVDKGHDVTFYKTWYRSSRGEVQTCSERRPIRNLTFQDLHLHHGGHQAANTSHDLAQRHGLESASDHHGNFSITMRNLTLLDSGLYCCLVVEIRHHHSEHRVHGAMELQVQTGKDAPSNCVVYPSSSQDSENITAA
# T2: His-tagged mouse VISTA extracellular domain protein (in house) (mouse, UniProt Q9D659 33-191)
# T2 construct: extracellular domain; also called mouse VISTA ECD; mVISTA; not shown: His tag
# T2 sequence (looked up): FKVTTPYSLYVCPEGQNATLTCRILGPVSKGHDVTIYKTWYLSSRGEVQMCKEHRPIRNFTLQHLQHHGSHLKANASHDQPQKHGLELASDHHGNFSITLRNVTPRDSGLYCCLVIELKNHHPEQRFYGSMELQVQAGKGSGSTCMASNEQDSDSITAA
# T3: human VISTA full length on Jurkat cells (human, UniProt Q9H7M9 33-311)
# T3 construct: also called Jurkat-hVISTA
# T3 sequence: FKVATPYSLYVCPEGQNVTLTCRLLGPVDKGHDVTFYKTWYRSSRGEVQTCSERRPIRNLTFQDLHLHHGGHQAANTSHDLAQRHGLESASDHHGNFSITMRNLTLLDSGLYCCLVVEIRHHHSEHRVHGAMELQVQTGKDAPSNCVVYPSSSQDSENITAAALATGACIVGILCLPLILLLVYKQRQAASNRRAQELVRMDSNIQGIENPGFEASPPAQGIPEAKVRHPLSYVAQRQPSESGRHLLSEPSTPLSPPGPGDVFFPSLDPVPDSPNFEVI
# T4: mouse VISTA full length on Jurkat cells (mouse, UniProt Q9D659 33-308)
# T4 construct: whole, on cells; also called Jurkat-mVISTA
# T4 sequence (looked up): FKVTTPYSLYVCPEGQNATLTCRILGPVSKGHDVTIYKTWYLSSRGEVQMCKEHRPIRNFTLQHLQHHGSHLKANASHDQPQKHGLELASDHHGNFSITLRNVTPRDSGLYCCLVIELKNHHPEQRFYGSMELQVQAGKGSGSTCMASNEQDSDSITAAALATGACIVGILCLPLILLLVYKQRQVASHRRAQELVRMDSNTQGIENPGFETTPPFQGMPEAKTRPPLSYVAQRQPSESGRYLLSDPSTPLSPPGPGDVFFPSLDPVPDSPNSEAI
# What was measured:
# [1] = target: T1, His-tagged human VISTA extracellular …; test: ELISA, hybridoma supernatant on coated human VISTA ECD (2 µg/ml)
# Experimental: (§1) 50 μl of hybridoma supernatant was incubated with human VISTA ECD (2 μg/ml), mouse VISTA ECD (2 μg/mL), cynomolgus VISTA (2 μg/mL), or negative mouse IgG1 control coated on 96 well ELISA plates. Mouse anti-VISTA antibodies were detected by anti-mouse IgG-HRP (Jackson ImmunoResearch, Cat. # 615035214).
# [2] = target: T2, His-tagged mouse VISTA extracellular …; test: ELISA, hybridoma supernatant on coated mouse VISTA ECD (2 µg/mL)
# Experimental: as §1
# [3] = target: human VISTA extracellular transmembrane-CD3zeta chimera on Jurkat-nfkb-GFP reporter cells (human, UniProt P20963 52-164); test: cell-based or functional assay
# [4] = target: T3, human VISTA full length on Jurkat cells; test: flow cytometry, hybridoma supernatant on Jurkat cells expressing human VISTA
# Experimental: (§2) Human and mouse VISTA expressing Jurkat cells were cultured in RPMI1640 with 10% FBS. Cells were seeded into a 96 well plate at 1×10⁵ cells/well. Then the cells were incubated with anti-VISTA hybridoma supernatants for 30 minutes at 4° C. […] After washing with FACS buffer, the cells were incubated with Alexa Fluor 647 conjugated anti-mouse IgG(H+L)(1 μg/ml) (Jackson ImmunoResearch, Cat. #61505214) for 30 minutes at 4° C. After washing with FACS buffer twice, the samples were run in a NovoCyte Flow Cytometer (Agilent). Data was analyzed using the NovoExpress Software.
# [5] = target: T4, mouse VISTA full length on Jurkat cells; test: flow cytometry, hybridoma supernatant on Jurkat cells expressing mouse VISTA
# Experimental: as §2
binding result [1],binding result [2],percentage of activated Jurkat-NFKb-GFP/hVISTA-hCD3z cells in the presence of OKT3 (3 ng/ml) [3] [%],binding result [4],binding result [5],Binder
binds,binds,≤ 60,,,"anti-VISTA antibody 15D11 (antibody, V domains shown, Mouse monoclonal from hybridoma) VH: EVQLQQSGSELVKAGASVKLSCTASGFKIKDTFIHWVKQRPEQGLDWIGRIDPANGNSKYDPKFQGKATITADTSSNTAYLQLSSLTSEDTAVYYCARWPSNWEAMDYWGQGTSVTVSS VL: QIVLTQSPAIMSASPGEKVTMTCSASSSVSYMYWYQQKPGSSPRLLIYDTSNLASGVPFRFSGSGSGTSYSLTISRMEAEDAATYYCQQWISYPLTFGTGTKLELK"
binds,binds,,binds,binds,"anti-VISTA antibody 17E9 (antibody, IgG1, V domains shown, Mouse monoclonal; Tested as hybridoma supernatant and as recombinant mIgG1) VH: QVQLQQSGAELMKPGASVKISCTATGYTFSSCWIEWVKQRPGHGLEWLGEILPGSDYTNYNEKFKDKATFTADTSSDTAYMQLSSLTSEDSAVYYCARRPPGWYFDVWGAGTAVTVSS VL: DIVMTQSHKFMSTSVGDRVSITCKASQDVSTDIAWYQQKPGQSPKLLIYSASYRFTGVPDRFTGSGSGTDFTFTISSVQAEDLAVYYCQHQYSTPWTFGGGTKLDIK"

# Further lines, the binder ahead of its results:
Binder,binding result [1],binding result [2],percentage of activated Jurkat-NFKb-GFP/hVISTA-hCD3z cells in the presence of OKT3 (3 ng/ml) [3] [%],binding result [4],binding result [5]
"anti-VISTA antibody 9F9 (antibody, V domains shown, Mouse monoclonal) VH: QVQFQQSGAELARPGASVKLSCKASGYTFTGYWMQWVKQRPGQGLEWIGAIYPGDGDTRYSQKFKGKVTLTADKSSSTAYMQLSSLASEDSAVYYCARRDYGAWFAYWGQGTLVTVSA VL: DIKVTQSPSSMYASLGERVTITCKASQDINSYLSWFQQKPGKSPKTLIYRANRLVDGVPSRFSGSGSGQDYSLTISSLDYEDMGIYYCLQYDEFPYTFGGGTKLEIK",binds,binds,> 60,binds,binds
"anti-VISTA antibody 16A1 (antibody, IgG1, V domains shown, Mouse monoclonal; Tested as hybridoma supernatant and as recombinant mIgG1) VH: QVQLQQSGAELMKPGASVKISCKATGYTFSSSWIEWVKQRPGHGLEWIGEIFPGSGSLNFNEKFKGKATFTADTSSNTAYLQLSSLTSDDSAVYYCARRPPGWFFDVWGAGTTVTVSS VL: DIVMTQSHKFMSTSVGDRVSITCKASQDVTTDVAWYQQKPGQSPKLLIYSASYRYTGVPDRFTGSGSGTDFTFTISSVQAEDLTVYYCQQHYSSPWTFGGGTKLEIK",binds,,,binds,
"anti-VISTA antibody 20E4 (antibody, IgG1, V domains shown, Mouse monoclonal; Tested as hybridoma supernatant and as recombinant mIgG1) VH: QVQLQQSGAELMKPGASVKISCKATGYTFSSSWVEWVRQRPGHGLEWIGEIFPGSGSTHYNEKFKGKATFTADTSSNTAYLQLSSLTSDDSAVYYCARRPPGWFFDVWGAGTTVTVSS VL: DIVMTQSHKFMSTSVGDRVSITCKASQDVSTDVAWYQQKPGQSPKLLIYSASYRYTGVPDRFTGSGSGTDFTFTISSVQAEDLAVYYCQQHYSTPWTFGGGTKLEIK",binds,binds,,binds,binds
